Series [1] addresses diketide-ACP4(Ø) (DEBS ACP4 without linker, loaded with diketide) (UniProt Q03132).
Series [2] deals with diketide-ACP4(4) (DEBS ACP4 with its natural C-terminal linker, loaded with diketide) (UniProt Q03132).
Series [3] has as its target diketide-ACP2(2) (DEBS ACP2 with its natural C-terminal linker, loaded with diketide) (UniProt Q03131).
Series [4] deals with diketide-ACP2(4) (DEBS ACP2 with the C-terminal linker of module 4, loaded with diketide) (UniProt Q03131).
A further series addresses DEBS-2 (UniProt Q03132).

For “(3)M5+TE (module 5 of DEBS with the N-terminal linker of module 3, fused to thioesterase)”, the “kcat/KM (FIG. 29 B)” value in series [1] turned out to be 41.7 M⁻¹ s⁻¹. For the same substance, in series [2], the “kcat/KM, fold decrease against the matched reaction (FIG. 28 B)” value is “fell approximately 20-fold and 150-fold, respectively”; the “triketide lactone formation at 20 µM substrate (FIG. 28 B)” value is listed as “transfer of diketide from the donor ACP to the acceptor module occurred at 20 µM substrate concentration”.

For the substance “(5)M5+TE (module 5 of DEBS with its own N-terminal linker, fused to thioesterase)”, the “triketide lactone formation at 20 µM substrate (FIG. 28 D)” value in series [3] was “no product was detected at the same substrate concentrations”. The “kcat/KM (FIG. 29 A)” value in series [1] turned out to be 68.3 M⁻¹ s⁻¹. In series [4], the “kcat/KM, fold decrease against the matched reaction (FIG. 28 C)” value is “fell approximately 20-fold and 150-fold, respectively”; the “triketide lactone formation at 20 µM substrate (FIG. 28 C)” value is on record as “transfer of diketide from the donor ACP to the acceptor module occurred at 20 µM substrate concentration”. Further, in series [2], the “conversion of acyl-ACP into triketide lactone in 1 h (20 µM 4, 1 µM (5)M5+TE)” value is 70% of the acyl-ACP was converted into triketide lactone in 1 h; the “elongation rate constant (kcat) with 4b, fold increase against the NAC thioester 2b” value is reported as “the elongation rate constant (kcat) increases at least 25-fold”; the “k60 µM (printed there as kcat/KM)” value is “kcat/KM values of 1.4 min-1 and 9.3 min^-1”; the kcat/KM result is “kcat/KM values of 390 min^-1 mM^-1 and 290 min^-1mM^-1”. For the same substance, the “triketide lactone formation at 20 µM substrate (FIG. 28 A)” value in series [2] is “transfer of diketide from the donor ACP to the acceptor module occurred at 20 µM substrate concentration”.

“(5)M6+TE (module 6 of DEBS with the N-terminal linker of module 5, with thioesterase)”: in series [1], the “kcat/KM, fold decrease against diketide-ACP4(4) with the same module” value is “the kcat/KM values drop approximately 70-300 fold”.

As for ery M1-RAL rifM5+ERL, the “6-dEB production on co-transformation in S. coelicolor (with DEBS-3)” value with DEBS-2 is given as “Yes (dEB6)”.

Source of the values: patent US20060110789.
